Starred links: 1 amine or outer side, 2 acyl side, 3 side chain; linkers in the order of their positions; H or OH if unused. Positions of bridges follow the written chain, without caps; N, C: chain ends. Non-standard residues stand in square brackets, D forms with d. Primed or numbered codes have the meaning given here. *: point of attachment. PyrS2″ = (S)-3-amino-1-((pent-4-en-1-yloxy)carbonyl)pyrrolidine-3-carboxylic acid (stapling residue), C=CCCCOC(=O)N1CC[C@@](N[*:1])(C(=O)[*:2])C1; B5(30) = 2-amino-2-(pent-4-en-1-yl)hept-6-enoic acid (2,2-bis(4-pentenyl)glycine, stitching residue), C=CCCCC(CCCC=C)(N[*:1])C(=O)[*:2]; B5(4) = 2,2-bis(4-pentenyl)glycine = 2-amino-2-(pent-4-en-1-yl)hept-6-enoic acid (stitching residue), C=CCCCC(CCCC=C)(N[*:1])C(=O)[*:2]; B5(5) = 2,2-bis(4-pentenyl)glycine, 2-amino-2-(pent-4-en-1-yl)hept-6-enoic acid (stitching residue), C=CCCCC(CCCC=C)(N[*:1])C(=O)[*:2]; (3C)TriAzdLys = (R)-2-amino-6-(4-propyl-1H-1,2,3-triazol-1-yl)hexanoic acid, CCCc1cn(CCCC[C@@H](N[*:1])C(=O)[*:2])nn1; B5(3) = 2,2-bis(4-pentenyl)glycine (stitching residue), C=CCCCC(CCCC=C)(N[*:1])C(=O)[*:2]; Phe(3-CF3) = N[C@@H](Cc1cccc(C(F)(F)F)c1)C(=O)O; Phe(3-COOH) = N[C@@H](Cc1cccc(C(=O)O)c1)C(=O)O; Phe(2-CF3) = N[C@@H](Cc1ccccc1C(F)(F)F)C(=O)O; Phe(2-Cl) = N[C@@H](Cc1ccccc1Cl)C(=O)O; 1Nal = N[C@@H](Cc1cccc2ccccc12)C(=O)O; 2Nal = N[C@@H](Cc1ccc2ccccc2c1)C(=O)O; Bta = N[C@@H](Cc1csc2ccccc12)C(=O)O; Lys(iPr) = CC(C)NCCCC[C@H](N)C(=O)O; αAllylPro = C=CC[C@@]1(C(=O)O)CCCN1; hPhe = N[C@@H](CCc1ccccc1)C(=O)O; tBuAla = CC(C)(C)C[C@H](N)C(=O)O; 3Thi = N[C@@H](Cc1ccsc1)C(=O)O; Cha = N[C@@H](CC1CCCCC1)C(=O)O; S8 = C=CCCCCCC[C@](C)(N)C(=O)O; Butoxycarbonyl = CCCCOC(=O)*; hSer = N[C@@H](CCO)C(=O)O
B1: I-1271 (peptide)
peptide: Ac-[αAllylPro]D[tBuAla][B5(3)]DTAAFT[PyrS2″][Phe(3-CF3)][Bta]S-NH2
modifications: staple 1-4; staple 4-11 (inferred); not fully specified; printed as Ac-PL3-Asp-Npg-B5-Asp-Thr-Ala-Ala-Phe-Thr-PyrS2-3F3MeF-BztA-Ser-NH2
B2: I-1270 (peptide)
peptide: Ac-[αAllylPro]D[tBuAla][B5(3)]DTAAFT[PyrS2″][2Nal][Bta]S-NH2
modifications: staple 1-4; staple 4-11 (inferred); not fully specified; printed as Ac-PL3-Asp-Npg-B5-Asp-Thr-Ala-Ala-Phe-Thr-PyrS2-2NapA-BztA-Ser-NH2
B3: I-1272 (peptide)
peptide: Ac-[αAllylPro]D[tBuAla][B5(3)]DTAAFT[PyrS2″]F[1Nal]S-NH2
modifications: staple 1-4; staple 4-11 (inferred); not fully specified; printed as Ac-PL3-Asp-Npg-B5-Asp-Thr-Ala-Ala-Phe-Thr-PyrS2-Phe-1NapA-Ser-NH2
B4: I-2447 (peptide)
peptide: Ac-[αAllylPro]N[Cha][B5(30)]DT[hSer]AFL[PyrS2″]F[Bta]Q-NH2
modifications: staple 1-4, 4-11; not fully specified; printed as Ac-PL3-Asn-Cha-B5-Asp-Thr-Hse-Ala-Phe-Leu-PyrS2-Phe-BztA-Gln-NH2
B5: I-2455 (peptide)
peptide: Ac-[αAllylPro]N[Cha][B5(30)]DT[Lys(iPr)]AFL[PyrS2″]F[Bta]K-NH2
modifications: staple 1-4, 4-11; not fully specified; printed as Ac-PL3-Asn-Cha-B5-Asp-Thr-iPrLys-Ala-Phe-Leu-PyrS2-Phe-BztA-Lys-NH2; also: staple -CH=CH- reduced to -CH2-CH2-
B6: I-2451 (peptide)
peptide: Ac-[αAllylPro]N[Cha][B5(30)]DQ[hSer]AFL[PyrS2″][3Thi][Bta]Q-NH2
modifications: staple 1-4, 4-11; not fully specified; printed as Ac-PL3-Asn-Cha-B5-Asp-Gln-Hse-Ala-Phe-Leu-PyrS2-3Thi-BztA-Gln-NH2; also: staple -CH=CH- reduced to -CH2-CH2-
B7: I-2454 (peptide)
peptide: Ac-[αAllylPro]N[Cha][B5(30)]DT[hSer]AFL[PyrS2″]F[Bta]K-NH2
modifications: staple 1-4, 4-11; not fully specified; printed as Ac-PL3-Asn-Cha-B5-Asp-Thr-Hse-Ala-Phe-Leu-PyrS2-Phe-BztA-Lys-NH2; also: staple -CH=CH- reduced to -CH2-CH2-
B8: I-2444 (peptide)
peptide: Ac-[αAllylPro]D[tBuAla][B5(30)]D[Phe(3-COOH)]AAFL[PyrS2″][Phe(2-CF3)][Bta]S[(3C)TriAzdLys]-NH2
modifications: staple 1-4, 4-11; not fully specified; printed as Ac-PL3-Asp-Npg-B5-Asp-3COOHF-Ala-Ala-Phe-Leu-PyrS2-2F3MeF-BztA-Ser-[3C]TriAzdLys-NH2
B9: I-2446 (peptide)
peptide: Ac-[αAllylPro]N[Cha][B5(5)]DQ[Lys(iPr)]AFL[PyrS2″][3Thi][Bta]Q-NH2
modifications: staple 1-4, 4-11; not fully specified; printed as Ac-PL3-Asn-Cha-B5-Asp-Gln-iPrLys-Ala-Phe-Leu-PyrS2-3Thi-BztA-Gln-NH2
B10: I-2452 (peptide)
peptide: Ac-[αAllylPro]N[Cha][B5(30)]DQ[Lys(iPr)]AFL[PyrS2″][3Thi][Bta]Q-NH2
modifications: staple 1-4, 4-11; not fully specified; printed as Ac-PL3-Asn-Cha-B5-Asp-Gln-iPrLys-Ala-Phe-Leu-PyrS2-3Thi-BztA-Gln-NH2; also: staple -CH=CH- reduced to -CH2-CH2-

What follows are binders tested against full-length beta-Catenin (Uniprot ID P35222) (Homo sapiens (Human)) (UniProt P35222) (assay: fluorescence polarization competition; full-length beta-catenin + 5FAM-TCF4(10-53) probe).
Target sequence in this assay (P35222 whole entry): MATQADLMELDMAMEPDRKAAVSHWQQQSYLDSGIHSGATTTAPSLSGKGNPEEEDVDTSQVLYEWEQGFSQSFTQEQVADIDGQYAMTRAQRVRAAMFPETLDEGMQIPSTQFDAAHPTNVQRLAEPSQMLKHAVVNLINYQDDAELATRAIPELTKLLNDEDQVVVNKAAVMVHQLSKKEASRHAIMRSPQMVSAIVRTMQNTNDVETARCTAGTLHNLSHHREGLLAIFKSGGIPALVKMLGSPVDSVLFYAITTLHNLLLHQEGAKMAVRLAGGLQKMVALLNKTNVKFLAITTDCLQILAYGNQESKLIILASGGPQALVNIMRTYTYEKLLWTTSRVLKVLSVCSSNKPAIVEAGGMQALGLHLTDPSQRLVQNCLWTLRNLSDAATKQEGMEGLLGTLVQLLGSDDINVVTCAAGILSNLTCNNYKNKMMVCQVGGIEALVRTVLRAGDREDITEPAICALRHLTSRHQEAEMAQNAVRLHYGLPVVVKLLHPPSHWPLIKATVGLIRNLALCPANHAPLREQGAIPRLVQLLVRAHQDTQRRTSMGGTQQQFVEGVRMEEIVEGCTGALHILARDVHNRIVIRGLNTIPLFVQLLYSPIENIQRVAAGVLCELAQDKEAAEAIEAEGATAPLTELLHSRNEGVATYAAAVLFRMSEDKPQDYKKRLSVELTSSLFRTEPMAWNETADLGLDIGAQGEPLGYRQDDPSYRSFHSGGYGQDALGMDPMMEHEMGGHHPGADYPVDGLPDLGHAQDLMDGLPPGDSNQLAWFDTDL
For B1, the EC50 was 682 nM. B2 showed an EC50 of 3700 nM. In the case of B3, the EC50 is reported as 331 nM.

Each binder was assayed against full-length beta-Catenin (Uniprot ID P35222) (Homo sapiens (Human)) (UniProt P35222) (assay: fluorescence polarization competition; full-length beta-catenin, competitor 5FAM-TCF4(10-53) probe).
Target sequence in this assay (P35222 whole entry): as above
For Ac-[αAllylPro]DA[B5(4)]DEAAFN[S8][hPhe][Bta]Q-NH2 (staple 1-4, 4-11; also: staple isomer composition, earlier-eluting HPLC peak) [I-442], the IC50 was 4480 nM.

These binders were tested against full-length beta-Catenin (Uniprot ID P35222) (Homo sapiens (Human)) (UniProt P35222) (assay: fluorescence polarization competition: full-length beta-catenin + 5FAM-TCF4(10-53) probe, peptide titrated).
Target sequence in this assay (P35222 whole entry): as above
For Ac-[αAllylPro]DA[B5(4)]DEAAFN[S8][hPhe][Bta]Q-NH2 (staple 1-4, 4-11; also: staple isomer composition, earlier-eluting HPLC peak) [I-442], the EC50 was 4480 nM.

What follows are binders tested against full-length beta-Catenin (Uniprot ID P35222) (Homo sapiens (Human)) (UniProt P35222) (assay: fluorescence polarization competition; full-length beta-catenin, 5FAM-TCF4(10-53) probe displaced).
Target sequence in this assay (P35222 whole entry): as above
Ac-[αAllylPro]D[tBuAla][B5(5)]SDAAFN[PyrS2″][3Thi][Bta]Q-NH2 (staple 1-4, 4-11) [Ac-PL3-Asp-Npg-B5-Ser-Asp-Ala-Ala-Phe-Asn-PyrS2-3Thi-BztA-Gln-NH2] showed an IC50 of 349 nM. Ac-[αAllylPro]D[tBuAla][B5(5)][hSer]DAAFN[PyrS2″][3Thi][Bta]Q-NH2 (staple 1-4, 4-11) [Ac-PL3-Asp-Npg-B5-Hse-Asp-Ala-Ala-Phe-Asn-PyrS2-3Thi-BztA-Gln-NH2] was tested, and the IC50 was 116 nM. With Ac-[αAllylPro]Q[tBuAla][B5(5)]DDAAFL[PyrS2″][3Thi][Bta]Q-NH2 (staple 1-4, 4-11) [Ac-PL3-Gln-Npg-B5-Asp-Asp-Ala-Ala-Phe-Leu-PyrS2-3Thi-BztA-Gln-NH2] the IC50 was 305 nM. With Ac-[αAllylPro]D[tBuAla][B5(5)]SDAAFL[PyrS2″][3Thi][Bta]Q-NH2 (staple 1-4, 4-11) [Ac-PL3-Asp-Npg-B5-Ser-Asp-Ala-Ala-Phe-Leu-PyrS2-3Thi-BztA-Gln-NH2] the IC50 was 479 nM. With Ac-[αAllylPro]S[tBuAla][B5(5)]DDAAFL[PyrS2″][3Thi][Bta]Q-NH2 (staple 1-4, 4-11) [Ac-PL3-Ser-Npg-B5-Asp-Asp-Ala-Ala-Phe-Leu-PyrS2-3Thi-BztA-Gln-NH2] the IC50 was 550 nM. Ac-[αAllylPro]D[tBuAla][B5(5)]LDAAFN[PyrS2″][3Thi][Bta]Q-NH2 (staple 1-4, 4-11) [Ac-PL3-Asp-Npg-B5-Leu-Asp-Ala-Ala-Phe-Asn-PyrS2-3Thi-BztA-Gln-NH2] gave an IC50 of 8660 nM. Binder Ac-[αAllylPro]Q[tBuAla][B5(5)]DDAAFN[PyrS2″][3Thi][Bta]Q-NH2 (staple 1-4, 4-11) [Ac-PL3-Gln-Npg-B5-Asp-Asp-Ala-Ala-Phe-Asn-PyrS2-3Thi-BztA-Gln-NH2] has an IC50 of 389 nM. Ac-[αAllylPro]D[tBuAla][B5(5)][hSer]DAAFL[PyrS2″][3Thi][Bta]Q-NH2 (staple 1-4, 4-11) [Ac-PL3-Asp-Npg-B5-Hse-Asp-Ala-Ala-Phe-Leu-PyrS2-3Thi-BztA-Gln-NH2] showed an IC50 of 216 nM. Work on Ac-[αAllylPro]D[tBuAla][B5(5)]QDAAFL[PyrS2″][3Thi][Bta]Q-NH2 (staple 1-4, 4-11) [Ac-PL3-Asp-Npg-B5-Gln-Asp-Ala-Ala-Phe-Leu-PyrS2-3Thi-BztA-Gln-NH2] yielded an IC50 of 115 nM. For Ac-[αAllylPro]N[tBuAla][B5(3)]DDAAFL[PyrS2″][3Thi][Bta]Q-NH2 (staple 1-4, 4-11) [Ac-PL3-Asn-Npg-B5-Asp-Asp-Ala-Ala-Phe-Leu-PyrS2-3Thi-BztA-Gln-NH2], the IC50 was 14 nM. Binder Ac-[αAllylPro]S[tBuAla][B5(5)]DDAAFN[PyrS2″][3Thi][Bta]Q-NH2 (staple 1-4, 4-11) [Ac-PL3-Ser-Npg-B5-Asp-Asp-Ala-Ala-Phe-Asn-PyrS2-3Thi-BztA-Gln-NH2] has an IC50 of 511 nM. Binder Ac-[αAllylPro]D[tBuAla][B5(5)]QDAAFN[PyrS2″][3Thi][Bta]Q-NH2 (staple 1-4, 4-11) [Ac-PL3-Asp-Npg-B5-Gln-Asp-Ala-Ala-Phe-Asn-PyrS2-3Thi-BztA-Gln-NH2] has an IC50 of 56 nM.

Each binder was assayed against full-length beta-Catenin (Uniprot ID P35222) (Homo sapiens (Human)) (UniProt P35222) (assay: fluorescence polarization competition; 10 nM full-length beta-catenin + 10 nM 5FAM-TCF4(10-53) probe, peptide titrated 10 uM to 5 nM).
Target sequence in this assay (P35222 2-781 limits assumed): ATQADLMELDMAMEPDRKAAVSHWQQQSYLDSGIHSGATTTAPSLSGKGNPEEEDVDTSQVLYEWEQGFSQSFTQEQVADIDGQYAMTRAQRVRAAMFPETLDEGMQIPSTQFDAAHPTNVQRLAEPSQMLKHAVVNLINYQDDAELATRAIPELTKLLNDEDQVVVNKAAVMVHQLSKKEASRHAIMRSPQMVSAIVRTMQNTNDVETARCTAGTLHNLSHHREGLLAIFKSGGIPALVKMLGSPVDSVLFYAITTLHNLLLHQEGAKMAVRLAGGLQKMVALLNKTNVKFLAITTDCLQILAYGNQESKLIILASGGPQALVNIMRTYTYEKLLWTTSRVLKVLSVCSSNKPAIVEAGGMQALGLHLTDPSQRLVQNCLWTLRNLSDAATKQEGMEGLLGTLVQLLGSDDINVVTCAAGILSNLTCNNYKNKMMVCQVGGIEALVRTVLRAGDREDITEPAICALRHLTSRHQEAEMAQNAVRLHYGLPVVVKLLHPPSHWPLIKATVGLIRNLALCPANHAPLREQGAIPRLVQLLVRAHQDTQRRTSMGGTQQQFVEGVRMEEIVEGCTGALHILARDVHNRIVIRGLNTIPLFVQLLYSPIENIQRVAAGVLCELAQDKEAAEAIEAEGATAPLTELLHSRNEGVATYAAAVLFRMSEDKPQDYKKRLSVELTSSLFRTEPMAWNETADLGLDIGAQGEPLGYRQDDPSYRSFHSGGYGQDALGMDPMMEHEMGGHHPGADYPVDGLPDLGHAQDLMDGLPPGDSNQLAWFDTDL
B4 gave an IC50 of 3250 nM. Binder B5 has an IC50 of 10000 nM. For B6, the IC50 was 4860 nM. For B7, the IC50 was 10000 nM. B8 was tested, and the IC50 was 121 nM. Work on B9 yielded an IC50 of 93 nM. Ac-[αAllylPro]D[tBuAla][B5(4)]D[Phe(3-COOH)]QAFL[PyrS2″][Phe(2-CF3)][2Nal]A-NH2 (staple 1-4, 4-11) [I-2461] was tested, and the IC50 was 75 nM. Ac-[αAllylPro]D[tBuAla][B5(4)]D[Phe(3-COOH)]QAFL[PyrS2″][Phe(2-CF3)][SbMeBztA]A-NH2 (staple 1-4, 4-11) [I-2457] was tested, and the IC50 was 52 nM. Ac-[αAllylPro]N[Cha][B5(30)]DT[hSer]AFL[PyrS2″]F[Bta]K-NH2 (staple 1-4, 4-11) [I-2449] showed an IC50 of 10000 nM. In the case of Ac-[αAllylPro]N[Cha][B5(4)]DT[Lys(iPr)]AFL[PyrS2″]F[Bta]K-NH2 (staple 1-4, 4-11) [I-2450], the IC50 is reported as 63 nM. With Ac-[αAllylPro]N[tBuAla][B5(5)]DHAAFL[PyrS2″]F[Bta]Q-NH2 (staple 1-4, 4-11) [I-2442] the IC50 was 282 nM. For Ac-[αAllylPro][hSer][tBuAla][B5(5)]DQAAFL[PyrS2″]F[Bta]Q-NH2 (staple 1-4, 4-11) [I-2443], the IC50 was 6670 nM. Work on Ac-[αAllylPro]D[tBuAla][B5(4)]D[Phe(3-COOH)]QAFL[PyrS2″][Phe(2-CF3)][RbMeBztA]A-NH2 (staple 1-4, 4-11) [I-2459] yielded an IC50 of 56 nM. In the case of B10, the IC50 is reported as 7200 nM.

These binders were tested against full-length beta-Catenin (Uniprot ID P35222) (Homo sapiens (Human)) (UniProt P35222) (assay: fluorescence polarization competition against 5FAM-TCF4(10-53) on full-length beta-catenin).
Target sequence in this assay (P35222 whole entry): as the sequence (P35222 whole entry) above
With B1 the IC50 was 682 nM. B2 was tested, and the IC50 was 3700 nM. Binder B3 has an IC50 of 331 nM.

What follows are binders tested against full-length beta-Catenin (Uniprot ID P35222) (Homo sapiens (Human)) (UniProt P35222) (assay: fluorescence polarization competition against 5FAM-TCF4(10-53), full-length beta-catenin).
Target sequence in this assay (P35222 whole entry): as above
Binder Butoxycarbonyl-[αAllylPro]D[tBuAla][B5(4)]D[Phe(3-COOH)]AAFL[PyrS2″][Phe(2-Cl)][Bta]A-NH2 (staple 1-4, 4-11) [I-2304] has an IC50 of 511 nM.
